T1: FcγRIIb extracellular domain with C-terminal His tag (human, UniProt P31994 43-217)
T1 construct: extracellular domain; Expressed in FreeStyle293 cells; analyte in the Biacore assay; also called FcgRIIb; 2b; not shown: His tag at the C terminus
T1 sequence (looked up): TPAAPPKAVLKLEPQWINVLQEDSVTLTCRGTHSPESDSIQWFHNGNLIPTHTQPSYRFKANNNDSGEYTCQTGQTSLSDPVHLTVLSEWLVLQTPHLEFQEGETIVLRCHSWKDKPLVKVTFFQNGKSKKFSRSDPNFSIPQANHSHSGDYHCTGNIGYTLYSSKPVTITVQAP

B1: GpH7-A5/GpH7-B3 variant E269_01G/GpL16-k0 (He Ab) (antibody, human IgG1, kappa)
heavy 1: not shown
heavy 2: not shown
light: DIVMTQSPLSLPVTPGEPASISCQASESLVHSNRNTYLHWYLQKPGQSPQLLIYKVSNRFSGVPDRFSGSGSGTDFTLKISRVEAEDVGVYYCSQNTHVPPTFGQGTKVEIERTVAAPSVFIFPPSDEQLKSGTASVVCLLNNFYPREAKVQWKVDNALQSGNSQESVTEQDSKDSTYSLSSTLTLSKADYEKHKVYACEVTHQGLSSPVTKSFNRGEC
notes: Heterodimerized anti-glypican-3 IgG1; the mutation stands in the GpH7-B3 chain only
B2: GpH7-A5/GpH7-B3 variant E269_02A/GpL16-k0 (He Ab) (antibody, human IgG1, kappa)
heavy 1: not shown
heavy 2: not shown
light: B1 light
notes: as for B1
B3: GpH7-A5/GpH7-B3 variant E269_03V/GpL16-k0 (He Ab) (antibody, human IgG1, kappa)
heavy 1: not shown
heavy 2: not shown
light: B1 light
notes: as for B1
B4: GpH7-A5/GpH7-B3 variant E269_04F/GpL16-k0 (He Ab) (antibody, human IgG1, kappa)
heavy 1: not shown
heavy 2: not shown
light: B1 light
notes: as for B1
B5: GpH7-A5/GpH7-B3 variant E269_05P/GpL16-k0 (He Ab) (antibody, human IgG1, kappa)
heavy 1: not shown
heavy 2: not shown
light: B1 light
notes: as for B1
B6: GpH7-A5/GpH7-B3 variant E269_06M/GpL16-k0 (He Ab) (antibody, human IgG1, kappa)
heavy 1: not shown
heavy 2: not shown
light: B1 light
notes: as for B1
B7: GpH7-A5/GpH7-B3 variant E269_07I/GpL16-k0 (He Ab) (antibody, human IgG1, kappa)
heavy 1: not shown
heavy 2: not shown
light: B1 light
notes: as for B1
B8: GpH7-A5/GpH7-B3 variant E269_08L/GpL16-k0 (He Ab) (antibody, human IgG1, kappa)
heavy 1: not shown
heavy 2: not shown
light: B1 light
notes: as for B1
B9: GpH7-A5/GpH7-B3 variant E269_11K/GpL16-k0 (He Ab) (antibody, human IgG1, kappa)
heavy 1: not shown
heavy 2: not shown
light: B1 light
notes: as for B1
B10: GpH7-A5/GpH7-B3 variant E269_12R/GpL16-k0 (He Ab) (antibody, human IgG1, kappa)
heavy 1: not shown
heavy 2: not shown
light: B1 light
notes: as for B1
B11: GpH7-A5/GpH7-B3 variant E269_13S/GpL16-k0 (He Ab) (antibody, human IgG1, kappa)
heavy 1: not shown
heavy 2: not shown
light: B1 light
notes: as for B1
B12: GpH7-A5/GpH7-B3 variant E269_14T/GpL16-k0 (He Ab) (antibody, human IgG1, kappa)
heavy 1: not shown
heavy 2: not shown
light: B1 light
notes: as for B1
B13: GpH7-A5/GpH7-B3 variant E269_15Y/GpL16-k0 (He Ab) (antibody, human IgG1, kappa)
heavy 1: not shown
heavy 2: not shown
light: B1 light
notes: as for B1
B14: GpH7-A5/GpH7-B3 variant E269_16H/GpL16-k0 (He Ab) (antibody, human IgG1, kappa)
heavy 1: not shown
heavy 2: not shown
light: B1 light
notes: as for B1
B15: GpH7-A5/GpH7-B3 variant E269_18N/GpL16-k0 (He Ab) (antibody, human IgG1, kappa)
heavy 1: not shown
heavy 2: not shown
light: B1 light
notes: as for B1
B16: GpH7-A5/GpH7-B3 variant H268_07I/GpL16-k0 (He Ab) (antibody, human IgG1, kappa)
heavy 1: not shown
heavy 2: not shown
light: B1 light
notes: as for B1
B17: GpH7-A5/GpH7-B3 variant H268_08L/GpL16-k0 (He Ab) (antibody, human IgG1, kappa)
heavy 1: not shown
heavy 2: not shown
light: B1 light
notes: as for B1
B18: GpH7-A5/GpH7-B3 variant H268_11K/GpL16-k0 (He Ab) (antibody, human IgG1, kappa)
heavy 1: not shown
heavy 2: not shown
light: B1 light
notes: as for B1
B19: GpH7-A5/GpH7-B3 variant H268_14T/GpL16-k0 (He Ab) (antibody, human IgG1, kappa)
heavy 1: not shown
heavy 2: not shown
light: B1 light
notes: as for B1
B20: GpH7-A5/GpH7-B3 variant K326_12R/GpL16-k0 (He Ab) (antibody, human IgG1, kappa)
heavy 1: not shown
heavy 2: not shown
light: B1 light
notes: as for B1
B21: GpH7-A5/GpH7-B3 variant S298_19Q/GpL16-k0 (He Ab) (antibody, human IgG1, kappa)
heavy 1: not shown
heavy 2: not shown
light: B1 light
notes: as for B1

What follows are binders tested against T1, FcγRIIb extracellular domain with … (assay: SPR (Biacore), antibody captured on antigen-peptide chip, FcγR as analyte; relative binding).
For B1, the He/Con_2b was 51.5 % of GpH7-A5/GpH7-B3/GpL16-k0 (=100). For B2, the He/Con_2b was 49.9 % of GpH7-A5/GpH7-B3/GpL16-k0 (=100). In the case of B3, the He/Con_2b is reported as 45.1 % of GpH7-A5/GpH7-B3/GpL16-k0 (=100). B4 was tested, and the He/Con_2b was 45 % of GpH7-A5/GpH7-B3/GpL16-k0 (=100). For B5, the He/Con_2b was 52.6 % of GpH7-A5/GpH7-B3/GpL16-k0 (=100). In the case of B6, the He/Con_2b is reported as 46.7 % of GpH7-A5/GpH7-B3/GpL16-k0 (=100). With B7 the He/Con_2b was 43.9 % of GpH7-A5/GpH7-B3/GpL16-k0 (=100). In the case of B8, the He/Con_2b is reported as 42.9 % of GpH7-A5/GpH7-B3/GpL16-k0 (=100). In the case of B9, the He/Con_2b is reported as 17.8 % of GpH7-A5/GpH7-B3/GpL16-k0 (=100). B10 was tested, and the He/Con_2b was 25.2 % of GpH7-A5/GpH7-B3/GpL16-k0 (=100). For B11, the He/Con_2b was 47.8 % of GpH7-A5/GpH7-B3/GpL16-k0 (=100). B12 was tested, and the He/Con_2b was 50.6 % of GpH7-A5/GpH7-B3/GpL16-k0 (=100). With B13 the He/Con_2b was 44.7 % of GpH7-A5/GpH7-B3/GpL16-k0 (=100). B14 was tested, and the He/Con_2b was 38.5 % of GpH7-A5/GpH7-B3/GpL16-k0 (=100). With B15 the He/Con_2b was 44.8 % of GpH7-A5/GpH7-B3/GpL16-k0 (=100). For B16, the He/Con_2b was 88.9 % of GpH7-A5/GpH7-B3/GpL16-k0 (=100). In the case of B17, the He/Con_2b is reported as 67.8 % of GpH7-A5/GpH7-B3/GpL16-k0 (=100). B18 was tested, and the He/Con_2b was 83 % of GpH7-A5/GpH7-B3/GpL16-k0 (=100). With B19 the He/Con_2b was 86 % of GpH7-A5/GpH7-B3/GpL16-k0 (=100). With B20 the He/Con_2b was 89.2 % of GpH7-A5/GpH7-B3/GpL16-k0 (=100). B21 was tested, and the He/Con_2b was 73.3 % of GpH7-A5/GpH7-B3/GpL16-k0 (=100).

The binders below were run against T2, FcγRIa extracellular domain with C-terminal His tag (human, UniProt P12314 16-292) in the same assay as above.
T2 construct: extracellular domain; Expressed in FreeStyle293 cells; analyte in the Biacore assay; also called FcgRI; 1a; not shown: His tag at the C terminus
T2 sequence (P12314 16-292): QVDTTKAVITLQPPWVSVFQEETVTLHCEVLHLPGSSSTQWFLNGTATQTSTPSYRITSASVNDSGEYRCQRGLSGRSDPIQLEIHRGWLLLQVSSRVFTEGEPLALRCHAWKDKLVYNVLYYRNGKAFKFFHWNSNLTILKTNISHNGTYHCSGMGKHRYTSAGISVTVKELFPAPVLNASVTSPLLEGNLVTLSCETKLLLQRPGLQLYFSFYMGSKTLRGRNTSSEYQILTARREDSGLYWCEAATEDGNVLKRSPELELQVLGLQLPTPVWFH
With B1 the He/Con_1a was 104 % of GpH7-A5/GpH7-B3/GpL16-k0 (=100). B2 was tested, and the He/Con_1a was 104 % of GpH7-A5/GpH7-B3/GpL16-k0 (=100). For B3, the He/Con_1a was 103 % of GpH7-A5/GpH7-B3/GpL16-k0 (=100). In the case of B4, the He/Con_1a is reported as 103 % of GpH7-A5/GpH7-B3/GpL16-k0 (=100). For B5, the He/Con_1a was 102 % of GpH7-A5/GpH7-B3/GpL16-k0 (=100). With B6 the He/Con_1a was 104 % of GpH7-A5/GpH7-B3/GpL16-k0 (=100). For B7, the He/Con_1a was 103 % of GpH7-A5/GpH7-B3/GpL16-k0 (=100). B8 was tested, and the He/Con_1a was 104 % of GpH7-A5/GpH7-B3/GpL16-k0 (=100). For B9, the He/Con_1a was 95.2 % of GpH7-A5/GpH7-B3/GpL16-k0 (=100). B10 was tested, and the He/Con_1a was 97.1 % of GpH7-A5/GpH7-B3/GpL16-k0 (=100). B11 was tested, and the He/Con_1a was 103 % of GpH7-A5/GpH7-B3/GpL16-k0 (=100). In the case of B12, the He/Con_1a is reported as 106 % of GpH7-A5/GpH7-B3/GpL16-k0 (=100). For B13, the He/Con_1a was 106 % of GpH7-A5/GpH7-B3/GpL16-k0 (=100). With B14 the He/Con_1a was 106 % of GpH7-A5/GpH7-B3/GpL16-k0 (=100). In the case of B15, the He/Con_1a is reported as 102 % of GpH7-A5/GpH7-B3/GpL16-k0 (=100). For B16, the He/Con_1a was 108 % of GpH7-A5/GpH7-B3/GpL16-k0 (=100). In the case of B17, the He/Con_1a is reported as 107 % of GpH7-A5/GpH7-B3/GpL16-k0 (=100). For B18, the He/Con_1a was 106 % of GpH7-A5/GpH7-B3/GpL16-k0 (=100). For B19, the He/Con_1a was 112 % of GpH7-A5/GpH7-B3/GpL16-k0 (=100). For B20, the He/Con_1a was 100 % of GpH7-A5/GpH7-B3/GpL16-k0 (=100). For B21, the He/Con_1a was 109 % of GpH7-A5/GpH7-B3/GpL16-k0 (=100).

Source: patent US20180155451A1 (published 2018)
